From patent US20180362629A1 (ZOETIS BELGIUM S A, published 2018) come the findings set out here.

The target in assay [1] is T1, recombinant canine β NGF (canine, UniProt Q29074 110-229 (pig entry)).
T1 chain: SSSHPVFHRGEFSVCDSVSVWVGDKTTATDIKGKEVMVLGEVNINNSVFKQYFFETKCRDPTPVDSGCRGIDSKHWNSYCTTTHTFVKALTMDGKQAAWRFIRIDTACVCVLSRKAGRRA
Put plainly: cell-based or functional assay.

Assay [2] has as its target T2, recombinant canine β NGF (canine, UniProt Q29074 110-229 (pig entry)).
T2 chain: T1 chain
Nature of the assay: cell-based or functional assay.

Substitutions are numbered along the chain they refer to. Bounds are passed on as bounds.

B1: Mu77 Canine IgG1/k Chimera (antibody, V domains shown)
VH: EVQLQQSGAELVKPGASVKLSCTASGFNIKDTYIYWVKQRPEQGLEWIGRIDPANGNTIYASKFQGKASITADTSSNTAYMQLSSLTSGDTAVYYCAGYGYYAYWGQGTTLTVSS
VL: DVVLTQTPLSLPVNIGDQASISCKSTKSLLNGDGFTYLDWYLQKPGQSPQLLIYLVSNRFSGVPDRFSGSGSGTDFTLKISRVEAEDLGVYYCFESNYLFTFGSGTKLEMKR
For B1, in the assay with recombinant canine β NGF [1], the “TF-1 cell proliferation potency (70 pM canine NGF)” value (“TF-1 cell proliferation potency” below) is less than 50 pM.

B2: PR-1254981 (antibody, mouse IgG1, V domains shown)
VH: EVQLVESGGGAVKPGGSLTLSCAASGFTFSNHYMYWVRQTPEKRLEWVASISDGGAYTFYPDTVKGRFTISRDNVNNNLYLQMRHLKSEDTAMYYCTREESANNGFAFWGQGTLVTVSA
VL: DVLMTQTPLSLPVSLGDQASISCRSSQSILHSNGNTYLEWYLQKPGQSPNLLIYRVSNRFSGVPDRFSGSGSGTDFTLKISRVEAEDLGVYYCFQGAHVPFTFGSGTKLEIKR
B2: in the assay with recombinant canine β NGF [1], the “PathHunter IC50 (441 pM canine NGF)” value is less than 1 nM and the “SureFire cellular pERK IC50 (128 pM canine NGF)” value (“SureFire cellular pERK IC50” for short) was less than 1 nM.

B3: Mu81 Canine IgG1/k Chimera (antibody, V domains shown)
VH: B2 VH
VL: B2 VL
For the molecule B3, the “TF-1 cell proliferation potency” value with recombinant canine β NGF [1] is less than 50 pM.

B4: PR-1254973 (antibody, mouse IgG2b, V domains shown)
VH: QVQLQQPGAELVKPGASVKLSCKASGYTFTNYWMHWVKQRPGQGLEWIGRIDPYGGGTKHNEKFKRKATVTADKSSSTAYILLSSLTSEDSAVYYCTRSGYDYYFDVWGTGTTVTVSS
VL: DIQMTQSPASLSASVGETVTVTCRASENIYSFLAWHQQKQGKSPQLLVYNANTLAEGVPSRFSGSGSGTQFSLKINSLQPEDFGSYYCQHHFGTPFTFGSGTKLEIKR
In the case of B4, in the assay with recombinant canine β NGF [1], the “PathHunter IC50 (441 pM canine NGF)” value was less than 1 nM and the “SureFire cellular pERK IC50” value is less than 1 nM.

B5: Mu73 Canine IgG1/k Chimera (antibody, V domains shown)
VH: B4 VH
VL: B4 VL
In the case of B5, the “TF-1 cell proliferation potency” value in the assay with recombinant canine β NGF [1] is less than 50 pM.

B6: 73.4 Canine IgG1/k (antibody, V domains shown)
VH: EVQLVQSAAEVKKPGASVKVSCKASGYIFINYWMHWVQQAPGAGLEWMGRIDPYGGGTKHNEKFKRRVTLTADKSTSTVYMELSNLRTEDTAVYYCTRSGYDYYFDVWGQGTLVTVSS
VL: DIQMTQTPLSLSASPGESASISCRASENIYSFLAWHRQKPGQSPQLLIYNANTLAEGVPSRFSGSGSGTQFTLRISRVEDEDAGLYYCQHHFGTPFTFGQGTKLEIKR
Consider B6, for which the “IC50, canine NGF-induced TF-1 cell proliferation (70 pM canine NGF)” value (“IC50 … (70 pM canine NGF)” below) with recombinant canine β NGF [2] was determined as 0 nM.

B7: 77.3 Canine IgG1/k (antibody, V domains shown)
VH: EVQLVQSAAEVKKPGASVKVSCKASGFNIKDTYIYWVKQAPGAGLEWIGRIDPANGNTIYASKFQGKASITADTSTNTAYMELSNLRTEDTAVYYCAGYGYYAYWGQGTLVTVSS
VL: DVVLTQTPRSLSVSPGETASISCKSTKSLLNGDGFTYLDWYRQKPGQSPQLLIYLVSNRFSGVPDRFSGSGSGTDFTLRISRVEADDTGLYYCFESNYLFTFGQGTNLEMKR
As for B7, the “IC50 … (70 pM canine NGF)” value in the assay with recombinant canine β NGF [2] came to 0.625 nM.

B8: 72.3 Canine IgG1/k (antibody, V domains shown)
VH: EVHLVESGGDLVKPGGSLRLSCVASGFTFSDYYMFWIRQSPGKGLEWVATISDGGSYTYYTDNVKGRFTISRDNANNNLYLQMNSLKAEDTAVYYCAKDWSDSEGFAYWGQGTLVTVSS
VL: DVLMTQTPPSLSVSPREPASISCRSSQSIVQSNGNTYLEWYLQKPGQSPKLLIYKVSNRFSGVPDRFSGSGSGTDFTLRISRVEADDTGVYYCFQGSHVPFTFGAGTKVELKR
In the case of B8, the “IC50 … (70 pM canine NGF)” value with recombinant canine β NGF [2] amounted to 0 nM.

B9: 72.4 Canine IgG1/k (antibody, V domains shown)
VH: B8 VH with I37V, Q39H, N78T, K87R
VL: B8 VL with V2I, L3V
As to B9, the “IC50 … (70 pM canine NGF)” value with recombinant canine β NGF [2] amounted to 0 nM.

B10: PR-1254982 (antibody, mouse IgG1, V domains shown)
VH: QVQLKESGPGLVAPSQSLSITCTVSGFSLTGYNINWVRQPPGKGLEWLGMIWGYGDTDYNSALKSRLSISKDNSKSQVFLKMNSLQTDDTARYYCARDHYGGNDWYFDVWGTGTTVTVSS
VL: DIQMTQTTSSLSASLGDRVTITCRASQDITNYLNWYQQKPDGTVKLLIYYTSRLHSGVPSRFSGSGSGTDYSLTISNLDQEDIATYFCQQGKTLPRTFGGGTKLEIKR
Turning to B10, in the assay with recombinant canine β NGF [1], the “PathHunter IC50 (441 pM canine NGF)” value is less than 1 nM and the “SureFire cellular pERK IC50” value was less than 1 nM.

B11: Mu82 Canine IgG1/k Chimera (antibody, V domains shown)
VH: B10 VH
VL: B10 VL
For the molecule B11, the “TF-1 cell proliferation potency” value with recombinant canine β NGF [1] is less than 50 pM.

B12: 77.4 Canine IgG1/k (antibody)
heavy: EVQLVQSAAEVKKPGASVKVSCKASGYIFIDTYIYWVKQAPGAGLEWMGRIDPANGNTIYASKFQGRVTLTADTSTNTVYMELSNLRTEDTAVYYCAGYGYYAYWGQGTLVTVSSASTTAPSVFPLAPSCGSTSGSTVALACLVSGYFPEPVTVSWNSGSLTSGVHTFPSVLQSSGLHSLSSMVTVPSSRWPSETFTCNVVHPASNTKVDKPVFNECRCTDTPPCPVPEPLGGPSVLIFPPKPKDILRITRTPEVTCVVLDLGREDPEVQISWFVDGKEVHTAKTQSREQQFNGTYRVVSVLPIEHQDWLTGKEFKCRVNHIDLPSPIERTISKARGRAHKPSVYVLPPSPKELSSSDTVSITCLIKDFYPPDIDVEWQSNGQQEPERKHRMTPPQLDEDGSYFLYSKLSVDKSRWQQGDPFTCAVMHETLQNHYTDLSLSHSPGK
light: DLVLTQTPRSLSVSPGETASISCKSTKSLLNGDGFTYLDWYRQKPGQSPQLLIYLVSNRFSGVPDRFSGSGSGTDFTLRISRVEADDTGLYYCFESNYLFTFSQGTNLEMKRNDAQPAVYLFQPSPDQLHTGSASVVCLLNSFYPKDINVKWKVDGVIQDTGIQESVTEQDKDSTYSLSSTLTMSSTEYLSHELYSCEITHKSLPSTLIKSFQRSECQRVD
On to B12, for which the “IC50 … (70 pM canine NGF)” value with recombinant canine β NGF [2] was determined as 0 nM.
